Data on one protein can be found in publication doi:10.1101/2025.02.14.637896 (bioRxiv, 2025).

This data set concerns the molecule itself. The data set is described as follows: SEC. In general terms: SEC sorts molecules by how far they enter the pores of the column.

B1: GIRK2 R92F channel (G protein-gated inwardly rectifying potassium channel 2, R92F substitution) (natural protein, mouse, UniProt P48542 1-425, looked up)
chain: MTMAKLTESMTNVLEGDSMDQDVESPVAIHQPKLPKQARDDLPRHISRDRTKRKIQRYVRKDGKCNVHHGNVRETYRYLTDIFTTLVDLKWFFNLLIFVMVYTVTWLFFGMIWWLIAYIRGDMDHIEDPSWTPCVTNLNGFVSAFLFSIETETTIGYGYRVITDKCPEGIILLLIQSVLGSIVNAFMVGCMFVKISQPKKRAETLVFSTHAVISMRDGKLCLMFRVGDLRNSHIVEASIRAKLIKSKQTSEGEFIPLNQSDINVGYYTGDDRLFLVSPLIISHEINQQSPFWEISKAQLPKEELEIVVILEGIVEATGMTCQARSSYITSEILWGYRFTPVLTMEDGFYEVDYNSFHETYETSTPSLSAKELAELANRAEVPLSWSVSSKLNQHAELETEEEEKNPEELTERNGDVANLENESKV
On to B1, for which the “stoichiometry N” value was determined as 4.

A word on the stoichiometry N: it is a count of units in the complex or per binding partner.
